Assay results as given in PMC6754870 (2019).

Assays:
VEGFR1 = biological target: T1, VEGFR1 (Rattus norvegicus, UniProt P53767); test: [125I]-VEGF-A saturation binding to isolated LSECs at 4°C, Scatchard
T1 chain: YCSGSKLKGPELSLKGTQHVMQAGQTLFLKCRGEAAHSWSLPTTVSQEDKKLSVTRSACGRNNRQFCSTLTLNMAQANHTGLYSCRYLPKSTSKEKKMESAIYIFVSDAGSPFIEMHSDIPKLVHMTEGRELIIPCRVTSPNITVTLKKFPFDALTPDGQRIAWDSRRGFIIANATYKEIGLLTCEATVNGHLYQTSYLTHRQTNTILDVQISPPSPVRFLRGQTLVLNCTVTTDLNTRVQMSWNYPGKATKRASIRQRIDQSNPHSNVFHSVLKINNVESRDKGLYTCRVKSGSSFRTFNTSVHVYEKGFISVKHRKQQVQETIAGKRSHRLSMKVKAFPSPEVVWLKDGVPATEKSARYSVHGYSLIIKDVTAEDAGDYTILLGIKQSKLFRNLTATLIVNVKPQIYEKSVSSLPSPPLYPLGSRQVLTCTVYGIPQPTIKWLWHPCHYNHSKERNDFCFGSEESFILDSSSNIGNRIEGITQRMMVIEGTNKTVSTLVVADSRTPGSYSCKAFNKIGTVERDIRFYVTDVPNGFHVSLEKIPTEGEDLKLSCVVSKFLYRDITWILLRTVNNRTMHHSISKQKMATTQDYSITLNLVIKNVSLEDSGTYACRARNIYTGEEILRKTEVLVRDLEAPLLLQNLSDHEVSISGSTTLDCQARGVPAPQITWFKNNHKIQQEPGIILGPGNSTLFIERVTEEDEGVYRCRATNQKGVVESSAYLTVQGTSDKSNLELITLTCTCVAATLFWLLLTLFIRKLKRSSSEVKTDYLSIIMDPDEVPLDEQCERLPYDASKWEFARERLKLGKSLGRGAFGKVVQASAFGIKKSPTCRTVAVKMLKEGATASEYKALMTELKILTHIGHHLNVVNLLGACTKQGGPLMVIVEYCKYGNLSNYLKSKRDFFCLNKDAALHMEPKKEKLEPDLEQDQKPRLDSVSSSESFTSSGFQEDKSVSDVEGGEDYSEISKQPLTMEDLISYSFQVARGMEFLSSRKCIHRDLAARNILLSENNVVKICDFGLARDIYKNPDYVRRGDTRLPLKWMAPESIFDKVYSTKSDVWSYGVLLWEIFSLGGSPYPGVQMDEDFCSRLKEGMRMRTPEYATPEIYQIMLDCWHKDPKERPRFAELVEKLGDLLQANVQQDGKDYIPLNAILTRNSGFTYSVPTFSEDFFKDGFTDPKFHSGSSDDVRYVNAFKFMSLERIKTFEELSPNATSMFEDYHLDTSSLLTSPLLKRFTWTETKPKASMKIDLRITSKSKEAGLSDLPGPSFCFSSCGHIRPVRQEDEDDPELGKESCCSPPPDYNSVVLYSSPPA

VEGFR2 = biological target: T2, VEGFR2 (Rattus norvegicus, UniProt O08775); test: as above
T2 chain: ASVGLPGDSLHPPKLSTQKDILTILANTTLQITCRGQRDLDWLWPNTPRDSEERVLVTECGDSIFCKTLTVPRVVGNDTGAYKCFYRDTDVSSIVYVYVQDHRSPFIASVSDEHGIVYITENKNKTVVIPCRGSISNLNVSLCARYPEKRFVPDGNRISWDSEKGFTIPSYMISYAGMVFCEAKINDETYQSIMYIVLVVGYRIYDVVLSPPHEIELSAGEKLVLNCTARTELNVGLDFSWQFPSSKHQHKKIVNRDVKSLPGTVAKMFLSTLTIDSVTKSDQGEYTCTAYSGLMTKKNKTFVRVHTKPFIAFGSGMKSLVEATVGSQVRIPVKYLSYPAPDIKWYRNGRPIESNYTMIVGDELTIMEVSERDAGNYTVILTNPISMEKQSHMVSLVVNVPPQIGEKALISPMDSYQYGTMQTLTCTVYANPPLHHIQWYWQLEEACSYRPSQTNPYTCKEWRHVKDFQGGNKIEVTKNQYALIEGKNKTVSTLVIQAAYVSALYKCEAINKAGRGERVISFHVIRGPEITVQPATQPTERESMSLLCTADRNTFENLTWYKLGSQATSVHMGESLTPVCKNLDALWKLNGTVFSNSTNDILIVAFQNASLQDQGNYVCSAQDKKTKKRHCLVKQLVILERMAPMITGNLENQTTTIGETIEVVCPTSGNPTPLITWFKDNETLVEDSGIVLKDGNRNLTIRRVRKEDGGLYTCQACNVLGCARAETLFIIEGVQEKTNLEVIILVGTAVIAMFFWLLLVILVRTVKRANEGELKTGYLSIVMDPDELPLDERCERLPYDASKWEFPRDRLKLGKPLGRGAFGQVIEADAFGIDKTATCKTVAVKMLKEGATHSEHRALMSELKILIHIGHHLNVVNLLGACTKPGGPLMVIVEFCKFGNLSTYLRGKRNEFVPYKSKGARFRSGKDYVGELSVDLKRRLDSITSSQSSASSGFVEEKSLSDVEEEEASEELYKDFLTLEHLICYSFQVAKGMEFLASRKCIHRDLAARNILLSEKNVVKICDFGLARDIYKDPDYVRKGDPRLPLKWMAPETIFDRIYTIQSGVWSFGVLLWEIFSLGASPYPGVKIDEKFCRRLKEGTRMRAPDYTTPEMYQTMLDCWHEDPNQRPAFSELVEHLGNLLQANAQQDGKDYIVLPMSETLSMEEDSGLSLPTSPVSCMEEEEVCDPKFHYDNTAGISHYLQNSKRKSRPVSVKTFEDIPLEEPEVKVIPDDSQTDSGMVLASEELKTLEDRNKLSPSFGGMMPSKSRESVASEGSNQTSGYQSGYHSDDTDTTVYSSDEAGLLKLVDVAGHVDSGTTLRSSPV

B1: VEGF-A165 (protein)
chain: MTDRQTDTAPSPSYHLLPGRRRTVDAAASRGQGPEPAPGGGVEGVGARGVALKLFVQLLGCSRFGGAVVRAGEAEPSGAARSASSGREEPQPEEGEEEEEKEEERGPQWRLGARKPGSWTGEAAVCADSAPAARAPQALARASGRGGRVARRGAEESGPPHSPSRRGSASRAGPGRASETMNFLLSWVHWSLALLLYLHHAKWSQAAPMAEGGGQNHHEVVKFMDVYQRSYCHPIETLVDIFQEYPDEIEYIFKPSCVPLMRCGGCCNDEGLECVPTEESNITMQIMRIKPHQGQHIGEMSFLQHNKCECRPKKDRARQEKKSVRGKGKGQKRKRKKSRYKSWSVPCGPCSERRKHLFVQDPQTCKCSCKNTDSRCKARQLELNERTCRCDKPRR
modifications: 125I-labeled VEGF-A
Work on B1 yielded a Kd (VEGFR1) of 0.008 nM and a Kd (VEGFR2) of 0.21 nM.
